In article PMC11109945:
Ends that are not written are not given here. * marks the point of attachment. Biotin = O=C1N[C@H]2[C@H](CS[C@H]2CCCCC(=O)*)N1

Target: T1, GST-WSB2 WDR (human)
T1 sequence (Q9NYS7 whole entry, looked up): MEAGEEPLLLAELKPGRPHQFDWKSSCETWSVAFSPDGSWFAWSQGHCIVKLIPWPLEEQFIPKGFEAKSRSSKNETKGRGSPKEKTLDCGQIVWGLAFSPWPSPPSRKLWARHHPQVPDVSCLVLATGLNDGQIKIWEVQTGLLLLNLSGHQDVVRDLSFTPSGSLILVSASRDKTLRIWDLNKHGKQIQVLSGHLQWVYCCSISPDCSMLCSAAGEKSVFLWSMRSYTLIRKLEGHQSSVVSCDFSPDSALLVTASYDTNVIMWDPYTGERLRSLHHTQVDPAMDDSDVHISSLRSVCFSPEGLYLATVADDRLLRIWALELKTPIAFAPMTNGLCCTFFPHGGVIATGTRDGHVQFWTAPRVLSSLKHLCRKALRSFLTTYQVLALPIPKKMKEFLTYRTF
Experiment: pull-down + far-Western, overlay or dot blot; about 3 ug glutathione beads-bound GST-WSB2 WDR with 1.8 nmol biotin-labeled RelA peptide in 500 ul GST binding buffer, 4°C, 1 h; washed, eluted with 20 mM GSH, denatured, spotted on nitrocellulose; anti-biotin and anti-GST

fold affinity against the unmethylated peptide: 3 to 4 fold
Binder: Biotin-TFKSIMK(Me)K(Me)SPFSG [biotin-labeled K314/315 monomethylated RelA peptide (a.a. 308-320)]
